Experimental data reported in US20120171195A1.
One block for each substance: values may come before it.

What was measured:
HLA-B*5101 (human) = test: Luminex beads; MAb 1/400; competitor rHLA-E
HLA-Cw*0501 (human) [1] = test: Luminex beads; MAb 1/400; competitor rHLA-E
HLA-Cw*1601 (human) = HLA-Cw*1601 (human) (UniProt P10321); test: Luminex beads; MAb 1/400; competitor rHLA-E
HLA-B*1511 (human) = HLA-B*1511 (human) (UniProt P01889); test: Luminex beads; MAb 1/400; competitor rHLA-E
HLA-B*1513 (human) = test: Luminex beads; MAb 1/400; competitor rHLA-E
HLA-Cw*1701 (human) = test: Luminex beads; MAb 1/400; competitor rHLA-E
HLA-Cw*0501 (human) [2] = test: Luminex beads; MAb 1/200; competitor rHLA-E
HLA-B*5201 (human) = test: Luminex beads; MAb 1/200; competitor rHLA-E
HLA-Cw*1502 (human) = test: Luminex beads; MAb 1/200; competitor rHLA-E
HLA-B*1301 (B13) (human) = test: Luminex single-antigen beads; MEM-E/02 1/600; serum Mi59 1/100
HLA-B*6701 (B67) (human) = HLA-B*6701 (B67) (human) (UniProt P01889); test: as above
HLA-B*3801 (B38) (human) = test: as above
[3] = biological target: HLA-Cw*1203 (Cw12) (human) (UniProt P10321); test: as above
HLA-A*2402 (A24) (human) = HLA-A*2402 (A24) (human) (UniProt P04439); test: as above
HLA-Cw*0304 (human) = test: as above
HLA-B*4801 (B48) (human) = HLA-B*4801 (B48) (human) (UniProt P01889); test: as above
HLA-B*0801 (B8) (human) = HLA-B*0801 (B8) (human) (UniProt P01889); test: as above
HLA-B*5401 (B54) (human) = HLA-B*5401 (B54) (human) (UniProt P01889); test: as above
[4] = biological target: HLA-Cw*1701 (Cw17) (human); test: as above
[5] = biological target: HLA-Cw*1802 (Cw18) (human) (UniProt P10321); test: as above
HLA-B*1401 (B64) (human) = HLA-B*1401 (B64) (human) (UniProt P01889); test: as above
HLA-B*2708 (B27) (human) = HLA-B*2708 (B27) (human) (UniProt P01889); test: as above
HLA-A*3002 (A30) (human) = HLA-A*3002 (A30) (human) (UniProt P04439); test: as above
[6] = biological target: HLA-Cw*0801 (Cw8) (human) (UniProt P10321); test: as above
HLA-B*3901 (B39) (human) = HLA-B*3901 (B39) (human) (UniProt P01889); test: as above
HLA-A*2901 (A29) (human) = HLA-A*2901 (A29) (human) (UniProt P04439); test: as above
HLA-A*2403 (A24) (human) = test: as above
[7] = biological target: HLA-Cw*0401 (Cw4) (human); test: as above
HLA-A*3301 (A33) (human) = test: as above
HLA-B*4501 (B45) (human) = test: as above
HLA-A*2501 (A25) (human) = test: as above
HLA-B*1801 (B18) (human) = test: as above
HLA-A*3201 (A32) (human) = test: as above
HLA-B*1511 (B75) (human) = HLA-B*1511 (B75) (human) (UniProt P01889); test: as above
HLA-B*1513 (B77) (human) = test: as above
HLA-A*2601 (A26) (human) = test: as above
HLA-B*5001 (B50) (human) = test: as above
HLA-B*4403 (B44) (human) = test: as above
HLA-B*5301 (B53) (human) = test: as above

MFI (HLA-B*5101 (human)): 128 MFI
MFI (HLA-Cw*0501 (human) [1]): 87 MFI
MFI (HLA-Cw*1601 (human)): 87 MFI
MFI (HLA-B*1511 (human)): 111 MFI
MFI (HLA-B*1513 (human)): 228 MFI
MFI (HLA-Cw*1701 (human)): 184 MFI
MFI (HLA-Cw*0501 (human) [2]): 147 MFI
MFI (HLA-B*5201 (human)): 87 MFI
MFI (HLA-Cw*1502 (human)): 86 MFI
Substance: murine monoclonal antibody (MAb) MEM-E/02

MFI (HLA-B*1301 (B13) (human)): < 500 MFI
MFI (HLA-B*6701 (B67) (human)): < 500 MFI
MFI (HLA-B*3801 (B38) (human)): < 500 MFI
MFI [3]: < 500 MFI
MFI (HLA-A*2402 (A24) (human)): < 500 MFI
MFI (HLA-Cw*0304 (human)): 557 MFI
MFI (HLA-B*4801 (B48) (human)): < 500 MFI
MFI (HLA-B*0801 (B8) (human)): < 500 MFI
MFI (HLA-B*5401 (B54) (human)): < 500 MFI
MFI [4]: < 500 MFI
MFI [5]: 1080 MFI
MFI (HLA-B*1401 (B64) (human)): < 500 MFI
MFI (HLA-B*2708 (B27) (human)): < 500 MFI
MFI (HLA-A*3002 (A30) (human)): < 500 MFI
MFI [6]: < 500 MFI
MFI (HLA-B*3901 (B39) (human)): < 500 MFI
MFI (HLA-A*2901 (A29) (human)): < 500 MFI
MFI (HLA-A*2403 (A24) (human)): < 500 MFI
MFI [7]: 4590 MFI
MFI (HLA-A*3301 (A33) (human)): < 500 MFI
MFI (HLA-B*4501 (B45) (human)): < 500 MFI
MFI (HLA-A*2501 (A25) (human)): < 500 MFI
MFI (HLA-B*1801 (B18) (human)): < 500 MFI
MFI (HLA-A*3201 (A32) (human)): < 500 MFI
MFI (HLA-B*1511 (B75) (human)): < 500 MFI
MFI (HLA-B*1513 (B77) (human)): < 500 MFI
MFI (HLA-A*2601 (A26) (human)): < 500 MFI
MFI (HLA-B*5001 (B50) (human)): < 500 MFI
MFI (HLA-B*4403 (B44) (human)): < 500 MFI
MFI (HLA-B*5301 (B53) (human)): < 500 MFI
Substance: murine monoclonal antibody MAb MEM-E/02
